Where a SMILES comes first, the peptide text is derived from it. The star is where a group is joined. Cbz = O=C(OCc1ccccc1)*
B1: XBP-1s: vector encoding only the spliced form of murine XBP-1, a protein of 371 aa (protein)
chain: MVVVAAAPSAATAAPKVLLLSGQPASGGRALPLMVPGPRAAGSEASGTPQARKRQRLTHLSPEEKALRRKLKNRVAAQTARDRKKARMSELEQQVVDLEEENHKLQLENQLLREKTHGLVVENQELRTRLGMDTLDPDEVPEVEAKGSGVRLVAGSAESAAGAGPVVTSPEHLPMDSDTVASSDSESDILLGILDKLDPVMFFKCPSPESASLEELPEVYPEGPSSLPASLSLSVGTSSAKLEAINELIRFDHVYTKPLVLEIPSETESQTNVVVKIEEAPLSSSEEDHPEFIVSVKKEPLEDDFIPELGISNLLSSSHCLRPPSCLLDAHSDCGYEGSPSPFSDMSSPLGTDHSWEDTFANELFPQLISV

Experiments:
[1] = tested on: XBP-1 protein; test: XBP-1 protein species in MOPC315 and MM.1S myeloma cells treated with proteasome inhibitors (Western blot); assay type: cell-based; settings: mouse myeloma MOPC315 and human myeloma MM.1S
Procedure: A variety of reversible and irreversible inhibitors that inhibit degradation of proteins by the ubiquitin-proteasome pathway have recently been identified. Proteasome inhibitors MG132 and PS341 block the rapid degradation of ubiquitinated proteins such as unspliced, but not spliced XBP-1. Myeloma cells express primarily spliced XBP-1 protein as expected. […] In this experiment lysates from MOPC315 cells were untreated or treated for 6 hours with 5 ug/ml of tunicamycin or 20 uM of MG-132 and were analyzed for the presence of XBP-1 using XBP-1 antibody. The two forms of XBP-1 were distinguished by their molecular weight.
In the presence of proteasome inhibitors, unspliced XBP-1 protein accumulates in the cell and is present at higher levels than the spliced protein. Lysates from Mm. 1S cells were untreated or treated for 1, 4, or 8 hours with 20 uM of PS-341 and were analyzed by western blotting with anti-XBP-1 antibody. Because unspliced, but not spliced XBP-1 is stabilized, the ratio of unspliced to spliced XBP-1 increases in cells treated with proteasome inhibitors.

[2] = tested on: XBP-1^−/− B cells; test: Ig production by retrovirally transduced XBP-1-/- primary B cells (ELISA); assay type: cell-based, mouse; settings: LPS 10 μg/ml 72 h
Procedure: Assays to measure immunoglobulin or cytokine levels in culture supernatants were performed as described (e.g., Hodge et al., 1996 Immunity. 4:397-405 or Science. 1996 274:1903-5).
The XBP-1 cDNAs for the unspliced (XBP-1u/s) and the spliced (XBP-1s) forms were PCR-amplified from the total RNA of untreated and tunicamycin treated NIH3T3 cells, respectively, with a primer set (5′-[…]-3′ (SEQ ID NO: 7) and 5′-[…]-3′) (SEQ ID NO: 8). XBP-1u form was generated by a PCR-based mutagenesis from XBP-unspliced/s cDNA so that the two G residues at position 532 and 535 were changed to A without changing amino acid sequences in the XBP-1u open reading frame. Numbers are based on the sequences from gene bank database (NM_013842 [gi:13775155]). These XBP-1 cDNAs were inserted into the GFP-RV retroviral vector by using blunt end ligation (Sambrook et al., 1989). EFFECTENE transfection (Quiagen) was used to introduce the DNA into the Phoenix cell line as described by manufacturer (e.g., Reimold et al., 2001 Nature. 412:300-7 or Int Immunol. 2001 13:241-8). Viral supernatants were harvested after 48 hours and frozen at −80° C. for later use. B cells were purified from mouse spleens using CD43 depletion or positive selection with B220+ magnetic beads as described by the manufacturer (MidiMacs, Miltenyi Biotech). B cell purity was generally near 95% as confirmed by flow cytometry. The B cells (10^6 cells /ml) were then activated in culture with LPS 10 μg/ml and F (ab′)2 anti-IgM (5 μg/ml Southern Biotechnology Associates Inc.) for 24 hours. The 1 ml of activated B cells (10^6 cells/ml) were mixed with 4 μg of polybrene and 1 ml of virus-containing supernatant and spun at 1000 g for 45 minutes at 24° C. Cells were incubated for 24-36 h at 37° C. and then GFP+ cells were flow sorted and returned to culture with and without stimulation.
The effects of these three different forms of XBP-1 on Ig secretion were compared in wild type and XBP-1^−/− B cells. In vitro activated splenic B cells were transduced using retroviruses expressing bicistronic mRNA encoding XBP-1u/s, XBP-1s, XBP-1u or control GFP. In FIGS. 5(A) and (B) purified B cells from wt and XBP-1^−/− mice were activated in culture with LPS 10 μg/ml and F (ab′)2 anti-IgM (5 μg/ml) for 24 hours. Retroviral transduction with GFP alone (GFP-Rv), XBP-1u/s (XBP-1u/s GFP Rv), XBP-1s (XBP-1s GFP Rv) or XBP-1u (XBP-1u GFP Rv) of activated B cells was performed. Cells were incubated for 24-36 h at 37° C. and then GFP+ cells were flow sorted and then returned to culture with LPS stimulation (10 μg/ml) for 72 h. IgM panel(A) and IgG2b panel (B) production analyzed by ELISA from culture supernatants of stimulated B cells. Experiments were done at least three times and standard deviation is shown.

[3] = tested on: UPR target genes; test: Genes induced by XBP-1s in MEF-tet-off-XBP-1s cells (gene array, Northern blot); assay type: cell-based; settings: doxycycline removed for three days
Procedure: XBP-1s expression was induced by culturing the cells for three days in doxycycline free media or by treating with Tm for the indicated time. […] Total RNA was also prepared to measure the expression level of BiP, CHOP, ERdj4, p58^ipk and ATF6α mRNA. (B) Additional XBP-1 dependent target genes identified in gene profiling experiments (Table 2) confirmed by Northern analysis in both XBP-1s MEF-tet-off and XBP-1^−/− MEFs. Ethidium bromide staining of the gels before blotting are shown at the bottom.
293T and MEF cells derived from wild type and XBP-1^−/− embryos were cultured in DMEM supplemented with 10% fetal calf serum (Hyclone Laboratories). MEF-tet-off cells (Clontech) were maintained in the same media with the addition of 100 μg/ml G418 and 1 μg/ml doxycycline. XBP-1s inducible cells were obtained by transfecting MEF-tet-off cells with the TREhyg-XBP-1s plasmid and then selecting in the presence of 400 μg/ml hygromycin B. Several clones were tested for doxycycline-dependent XBP-1s expression, and one was selected for further experiments. MEF-dn-XBP cells were generated by transfecting MEF-tet-off cells with the TREhyg-dn-XBP plasmid. […] ATF6α and β knockdown MEF cells were generated by cotransfecting wild type MEF cells with U6-iATF6α and β and cmv-puromycin or transducing cells with retroviruses containing each RNAi vector.
Total RNA was isolated from MEF cells with TRIZOL reagent (Invitrogen, Carlsbad, Calif.). cDNA synthesis, hybridization and laser scanning of the array were carried out at the Gene Array Technology Center (Brigham and Women's Hospital, Boston, Mass.) with MG-U74A GeneChips which had 6,000 functionally characterized sequences and 6,000 ESTs from the UniGene database (Affymetrix, Santa Clara, Calif.) as recommended by Affymetrix. Data analysis was performed using Affymetrix GeneChip 3.1 software under default parameter setting.
To examine whether XBP-1 itself is sufficient to induce these UPR target genes, the tet-off system was used to establish a cell line in which the spliced form of XBP-1, XBP-1s, is placed downstream of a tetracycline dependent promoter. XBP-1s was induced by removing doxycycline in the culture medium for three days. […] To identify genes that were induced by XBP-1s, total RNAs were prepared from MEF-tet-off-XBP-1s cells cultured in the presence or absence of doxycycline and gene array analysis performed (Table 1). […] In addition, ˜23% of the total pool of analyzed UPR target genes were induced by XBP-1s, although the fold induction tended to be lower than upon Tm treatment. These UPR genes included Herp, BiP, Aremt, AW124049 EST and interferon beta. […] The expression of BiP, CHOP, ERdj4 and p58^ipk was confirmed by Northern blot analysis (FIG. 17A).

Molecule | amount of unspliced XBP-1 protein [1] | levels of active spliced XBP-1 protein [1] | secretion of IgM compared to control cells [2] | ATF6α induction [3] | BiP induction [3] | CHOP induction [3] | ERdj4 and p58ipk expression [3] | share of analyzed UPR target genes induced [3] [%]
CC(C)C[C@@H](C=O)NC(=O)[C@H](CC(C)C)NC(=O)[C@H](CC(C)C)NC(=O)OCc1ccccc1 [MG-132] (Cbz-Leu-Leu-Leu-aldehyde) | dramatic increase in the amount of unspliced XBP-1 protein | concomitant decrease in levels of the active spliced XBP-1 protein |  |  |  |  |  | 
B1 |  |  | approximately ten-fold | also induced by XBP-1s | only marginally induced | not significantly induced | sufficient to induce ERdj4 and p58^ipk expression | ~23

From US20040170622A1, “Methods and compositions for modulating XBP-1 activity” (President and Fellows of Harvard College, priority 2002, published 2004)
